Measurements from patent US20090325867A1, “RECEPTOR-SPECIFIC TUMOUR NECROSIS FACTOR-RELATED APOPTOSIS-INDUCING LIGAND (TRAIL) VARIANTS” (MEDICAL RESEARCH COUNCIL, priority 2005, published 2009).
Changes are numbered by the printed parent chain. Names and notes keep the numbering of the source. “Also recorded” adds a separate entry of the source.

B1: TRAIL.R1-4: 6His TRAIL 95-281 with 199Val, 201Arg, 213Trp and 215Asp (protein)
chain: TSEETISTVQEKQQNISPLVRERGPQRVAAHITGTRGRSNTLSSPNSKNEKALGRKINSWESSRSGHSFLSNLHLRNGELVIHEKGFYYIYSQTYFRFQEEIKEVTRNDKQMVQYIYKWTDYPDPILLMKSARNSCWSKDAEYGLYSIYQGGIFELKENDRIFVSVTNEHLIDMDHEASFFGAFLVG
B2: TRAIL.R1-6: His-TRAIL (95-281) with 189Ala, 193Ser, 199Val, 201Arg, 213Trp, 215Asp; proposed TRAIL-R1 selective mutant of Kelley et al. (protein)
chain: B1 chain with Y95A, Q99S
modifications: biotin (site not stated) in the DISC analysis only; not biotinylated in the apoptosis assays
B3: TRAIL.R1-5a: His-TRAIL (95-281) with 189Ala, 199Val, 201Arg, 213Trp, 215Asp (protein)
chain: B1 chain with Y95A
B4: TRAIL.R1-2: His-TRAIL (95-281) with 213Trp and 215Asp (Y213W;S215D) (protein)
chain: B1 chain with V105N, R107K
B5: TRAIL.R1-1: His-TRAIL (95-281) with single substitution Tyr189Ala (protein)
chain: B1 chain with Y95A, V105N, R107K, W119Y, D121S
B6: TRAIL R191L: Arg191Leu single mutant of His-TRAIL (protein)
chain: B1 chain with R97L, V105N, R107K, W119Y, D121S
B7: TRAIL N199V: Asn199Val single mutant of His-TRAIL (protein)
chain: B1 chain with R107K, W119Y, D121S

tested on: Ramos cells; experiment: Apoptosis by phosphatidylserine (PS) externalization in Ramos cells; type: cell-based; details: 4 h exposure, 500 ng ml^−, Mean ± SEM of at least three determinations
Experimental: (§1) Cells were also exposed to HGS-ETR1 or HGSETR2 (1 μg ml^−1). C: Ramos or Jurkat cells were pre-incubated for 30 min either alone or with TRAIL-R1 blocking Ab or TRAIL-R2 neutralizing Ab (5 μg ml^−1). […] D: Ramos and Jurkat cells were exposed to wt TRAIL or TRAIL mutants as described above and processing of caspase-3 and -8 determined by Western blot analysis. The asterisk indicates a non-specific band. The lower panel of the blot for detection of the caspase-8 p18 subunit was exposed for twice as long as the upper panel. Apoptosis was assessed by phosphatidylserine externalization and results expressed as the Means±SEM of at least 3 separate determinations.
(§2) Ramos, an Epstein-Barr virus-negative Burkitt's lymphoma cell line, and Jurkat T cells (clone E6-1) were cultured as described (MacFarlane et al (2005 Cell Death and Differentiation vol 12 pages 773-782)). Blood samples were obtained from CLL patients, with patient consent and local ethical committee approval and CLL cells purified as described (MacFarlane et al (2002 Oncogene 21, 6809-6818). Cells were incubated for 16 h with depsipeptide (10 nM), provided by Dr. E. Sausville (NCI, USA). Cells were then cultured for a further 6 h with either HGSETR1 or HGS-ETR2, agonistic mAbs to TRAIL-R1 or -R2, respectively (Human Genome Sciences, Rockville, Md.), His-TRAIL-LE (a recombinant TRAIL with low endotoxin—Alexis Corporation, Nottingham, UK), His-TRAIL, a similar form of human recombinant TRAIL (MacFarlane et al (1997 J Biol Chem 272, 25417-25420)) but not further purified to reduce endotoxin levels or a mutant form of His-TRAIL as described (MacFarlane et al., 2005 ibid.). Cell lines were also pre-incubated for 30 min with a TRAIL-R1 blocking Ab and a TRAIL-R2 neutralizing Ab from Alexis and R&D systems, respectively, prior to exposure to TRAIL. Freshly isolated cells from patients with MCL were isolated, purified and incubated with different forms of TRAIL as described above for CLL cells. Samples were either analyzed immediately for apoptosis or stored at −80° C. for subsequent Western blotting. Other methods and reagents were as described (Inoue (2004 Cell Death Differ 11 Suppl 2, S193-206); MacFarlane et al., 2005 ibid).
(§3) Apoptosis was quantified by phosphatidylserine (PS) externalization in the presence of propidium iodide as described (MacFarlane et al., 2002 ibid.). Samples for Western blot analysis were prepared and caspase processing detected as described (Inoue et al., 2004 ibid.; MacFarlane et al., 2005 ibid.).
Ramos and Jurkat T cells (clone E6-1) were cultured as described (MacFarlane et al, 2005 ibid.). The breast tumour cell line, MCF-7 (clone F43) was cultured as described previously (MacFarlane et al., 2000 J. Cell Biol. 148, 1239-1254). Cells were cultured for either 4 h (Ramos and Jurkat) or 6 h (MCF-7) with His-TRAIL (MacFarlane et al, 1997 J Biol Chem 272, 25417-25420), HGS-ETR1 or HGS-ETR2 (Human Genome Sciences), or a mutant form of His-TRAIL (MacFarlane et al, 2005 ibid.). Samples were analyzed for apoptosis, Western blotting, or TRAIL DISC activation as described (MacFarlane et al, 2005 ibid.; MacFarlane et al. 2002 Oncogene 21, 6809-6818). Mutants of His-TRAIL (residues 95-281) were generated using the Quik-Change site-directed mutagenesis kit (Stratagene, Calif.), confirmed by DNA sequencing, expressed in E. coli and purified as described (MacFarlane et al, 1997 ibid.). For siRNA targeting of TRAIL-R1/-R2, MCF-7 cells were seeded into six-well plates immediately prior to effectene-mediated RNAi transfection with either a negative control siRNA (30 nM, Ambion, #4611), or preannealed siRNA oligonucleotides for TRAIL-R1 or TRAIL-R2 (30 nM, Ambion), with the sequence and validity described (Ren et al, 2004 Mol. Biol. Cell vol 15 pp 5064-5074). After 40 h of transfection the cells were collected and total TRAIL-R1 or TRAIL-R2 levels assessed. […]

With B1 as the molecule, how does the “% PS+ cells, Ramos” value read?
The value was 43.5 ± 2.5%.

How did the “% PS+ cells, Ramos” value turn out when B2 was run?
Its value is 13.7 ± 1.3%.

How did the “% PS+ cells, Ramos” value turn out when B3 was run?
Its value is 18.9 ± 0.7%.

Which “% PS+ cells, Ramos” value does the source give for B4 here?
The value was 42.2 ± 3.1%.

Which “% PS+ cells, Ramos” value does the source give for B5 here?
The value was 30.6 ± 2.9%.

same assay, conditions: PS externalization, compared with wt TRAIL

How did the “ability to induce apoptosis in Ramos cells (in words)” value (“ability … in Ramos cells (in words)” below) turn out when B1 was run?
Its value is “retained the activity of wt TRAIL”.

With B2 as the molecule, how does the “ability … in Ramos cells (in words)” value read?
The value was “largely inactive”.

For B3, which “ability … in Ramos cells (in words)” value is on record?
Its value is “markedly diminished activity”.

With B4 as the molecule, how does the “ability … in Ramos cells (in words)” value read?
Its value is “very similar activity to wt TRAIL”.

For B5, which “ability … in Ramos cells (in words)” value is on record?
Its value is “decreased ability to induce apoptosis”.

biological target: T1, TRAIL-R1 (DR4) (Homo sapiens, UniProt O00220); experiment: TRAIL-R1 selective apoptotic signalling (Ramos versus Jurkat cells); type: cell-based; details: from apoptosis in Ramos (TRAIL-R1) and Jurkat (TRAIL-R2) cells
T1 construct: Ramos and Jurkat cells, which signal predominantly through TRAIL-R1 and TRAIL-R2, respectively; endogenous in cells; host or cells: Ramos cells (Jurkat cells as TRAIL-R2 comparison)
Text: Another test involves the assay of the effect in R1- (DR4-) only cells. This is the preferred test for DR4 selectivity as discussed herein. Preferably the ligand is applied to an R1-only signalling cell. Preferably the cell is a Ramos cell. Preferably the read-out is functional activity, preferably death-inducing activity (apoptosis). This is crucial to the test—mere binding is not as robust an indicator as functional induction of death. Thus, preferably a DR4 selective ligand according to the present invention induces death in a DR4 only signalling cell, such as a Ramos cell.
as §2, §3
Referring to FIG. 4: Ramos cells (A) and Jurkat cells (B) were cultured with increasing concentrations of Arg191Leu or Asn199Val single mutants of His-TRAIL ([…]) or His-TRAIL (500 ng/ml), ETR1 or ETR2 (1000 ng/ml) for 4 h. Apoptosis was quantified by measuring the % PS+ cells and results shown in FIG. 4 are the Mean±SEM of three independent experiments. Thus the biological importance TRAIL residues R191 and N199 in TRAIL-R1 selectivity is shown.

With B1 as the molecule, how does the “receptor selectivity of apoptotic activity (in words)” value (“receptor selectivity” for short) read?
Its value is “good R1 selective activity; also recorded: a degree of selectivity for TRAIL-R1”.

B6 was tested. Which “receptor selectivity” value did it give?
Its value is “TRAIL-R1 selective”.

Which “receptor selectivity” value does the source give for B7 here?
The value was “TRAIL-R1 selective”.

How did the “receptor selectivity” value turn out when B4 was run?
Its value is “neither specific for TRAIL-R1 nor R2; also recorded: did not show any differential effects”.

tested on: TRAIL DISC in Jurkat cells; experiment: DISC analysis with biotinylated TRAIL in Jurkat cells; type: cell-based; details: biotinylated ligand 500 ng ml^−1, 30 min
Experimental: (§4) After exposure of the cells for 30 min, DISC complexes were isolated and analyzed for the indicated proteins by Western blotting. To provide an unstimulated receptor control (u/s), biotinylated wt or mutant TRAIL was added to lysate from untreated cells. C: Freshly isolated cells from patients with CLL were incubated for 16 h either alone or in the presence of depsipeptide (10 nM). […] The different symbols used indicate data from six individual patients and the solid line indicates the Mean.
(§5) Ramos or Jurkat cells (5×10^7 cells per treatment) were exposed to biotin-tagged recombinant His-TRAIL (biotinylated TRAIL) or one of its mutant forms (500 ng ml^−1) for 30 min and then DISC formation assessed as described previously (MacFarlane et al., 2002 ibid.).

Which “DISC formation: receptor bound, FADD and caspase-8 recruitment” value does the source give for B2 here?
Its value is “bound neither TRAIL-R1 nor -R2”.

tested on: Jurkat cells; experiment: Apoptosis by phosphatidylserine (PS) externalization in Jurkat cells; type: cell-based; details: 4 h exposure, 500 ng ml^−, Mean ± SEM of at least three determinations
Experimental: as §1, with “determinations. […]” for “determinations.”
as §3
Ramos and Jurkat T cells (clone E6-1) were cultured as described (MacFarlane et al, 2005 ibid.). The breast tumour cell line, MCF-7 (clone F43) was cultured as described previously (MacFarlane et al., 2000 J. Cell Biol. 148, 1239-1254). Cells were cultured for either 4 h (Ramos and Jurkat) or 6 h (MCF-7) with His-TRAIL (MacFarlane et al, 1997 J Biol Chem 272, 25417-25420), HGS-ETR1 or HGS-ETR2 (Human Genome Sciences), or a mutant form of His-TRAIL (MacFarlane et al, 2005 ibid.). Samples were analyzed for apoptosis, Western blotting, or TRAIL DISC activation as described (MacFarlane et al, 2005 ibid.; MacFarlane et al. 2002 Oncogene 21, 6809-6818). Mutants of His-TRAIL (residues 95-281) were generated using the Quik-Change site-directed mutagenesis kit (Stratagene, Calif.), confirmed by DNA sequencing, expressed in E. coli and purified as described (MacFarlane et al, 1997 ibid.). For siRNA targeting of TRAIL-R1/-R2, MCF-7 cells were seeded into six-well plates immediately prior to effectene-mediated RNAi transfection with either a negative control siRNA (30 nM, Ambion, #4611), or preannealed siRNA oligonucleotides for TRAIL-R1 or TRAIL-R2 (30 nM, Ambion), with the sequence and validity described (Ren et al, 2004 Mol. Biol. Cell vol 15 pp 5064-5074). After 40 h of transfection the cells were collected and total TRAIL-R1 or TRAIL-R2 levels assessed. Where indicated, RNAi transfected MCF-7 cells were either left untreated or exposed to wt-TRAIL and apoptosis assessed by the extent of Bax activation, determined using the conformation specific Bax MAb, clone 3 (Dewson et al, 2003 Oncogene vol 22 pp 2643-54).

Which “% PS+ cells, Jurkat” value does the source give for B1 here?
Its value is 25.0 ± 2.6%.

For B2, which “% PS+ cells, Jurkat” value is on record?
Its value is 6.4 ± 0.8%.

How did the “% PS+ cells, Jurkat” value turn out when B3 was run?
Its value is 6.6 ± 0.4%.

With B4 as the molecule, how does the “% PS+ cells, Jurkat” value read?
Its value is 46.6 ± 3.1%.

For B5, which “% PS+ cells, Jurkat” value is on record?
The value was 24.9 ± 2.2%.

same assay, conditions: PS externalization, compared with wt TRAIL

For B1, which “ability to induce apoptosis in Jurkat cells (in words)” value (“ability … in Jurkat cells (in words)” for short) is on record?
Its value is “decreased activity; also recorded: lost some activity”.

With B2 as the molecule, how does the “ability … in Jurkat cells (in words)” value read?
The value was “inactive”.

With B3 as the molecule, how does the “ability … in Jurkat cells (in words)” value read?
Its value is “complete inactivity”.

For B4, which “ability … in Jurkat cells (in words)” value is on record?
Its value is “very similar activity to wt TRAIL”.

For B5, which “ability … in Jurkat cells (in words)” value is on record?
Its value is “decreased ability to induce apoptosis”.

tested on: TRAIL DISC in Ramos cells; experiment: DISC analysis with biotinylated TRAIL in Ramos cells; type: cell-based; details: biotinylated ligand 500 ng ml^−1, 30 min
Experimental: as §4, §5

For B2, which “DISC formation: receptor bound, FADD and caspase-8 recruitment” value is on record?
The value was “failed to recruit FADD or caspase-8 to the DISC”.
